Experimental data published in article PMC4041471, “Cas6 specificity and CRISPR RNA loading in a complex CRISPR-Cas system” (Nucleic Acids Research, 2014).

Columns and labels:
[1] = biological target: Recombinant Cas6-1 (Sso1437) (S. solfataricus) (UniProt Q97Y96); experiment: SEC; recombinant Cas6-1 alone on Superdex 200 in GF buffer (20 mM sodium phosphate pH 7.5, 250 mM NaCl, 5 mM EDTA, 0.5 mM DTT)
Cas6-1 [2] = biological target: T1, Cas6-1 (Saccharolobus/Sulfolobus solfataricus P2, UniProt Q97Y96 1-287); experiment: fluorescence quenching; 25 C; apparent Kd, fit with variable Hill coefficient; partial cleavage not ruled out; EMSA: NR buffer (composition not in material) with 2 uM BSA, 0.5 nM RNA (legend: 1 nM), 15 min at 20 C, 6% native PAGE in 1x TBE; fluorescence quenching at 25 C, buffer not in material; settings: protein: recombinant; chain copies: 2; label: 5'-FAM
T1 sequence: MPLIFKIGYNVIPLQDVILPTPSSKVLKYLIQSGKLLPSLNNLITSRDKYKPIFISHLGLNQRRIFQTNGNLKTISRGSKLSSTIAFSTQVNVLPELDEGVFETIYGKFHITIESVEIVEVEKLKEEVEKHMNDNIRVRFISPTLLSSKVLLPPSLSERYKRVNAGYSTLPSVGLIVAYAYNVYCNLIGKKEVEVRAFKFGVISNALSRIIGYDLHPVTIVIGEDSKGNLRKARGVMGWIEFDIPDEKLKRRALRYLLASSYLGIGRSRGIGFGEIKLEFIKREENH

Cas6-1 [3] = biological target: T1, Cas6-1; experiment: EMSA; 20 C; apparent Kd, no intermediate bands; EMSA: NR buffer (composition not in material) with 2 uM BSA, 0.5 nM RNA (legend: 1 nM), 15 min at 20 C, 6% native PAGE in 1x TBE; fluorescence quenching at 25 C, buffer not in material; settings: protein: recombinant; chain copies: 2; label: 5'-32P
Cas6-1 [4] = biological target: T1, Cas6-1; experiment: EMSA; 20 C; apparent Kd, intermediate shifted species; EMSA: NR buffer (composition not in material) with 2 uM BSA, 0.5 nM RNA (legend: 1 nM), 15 min at 20 C, 6% native PAGE in 1x TBE; fluorescence quenching at 25 C, buffer not in material; settings: protein: recombinant; chain copies: 2; label: 5'-32P
Cas6-1 [5] = biological target: T1, Cas6-1; experiment: fluorescence quenching; 25 C; apparent Kd, fit with variable Hill coefficient; EMSA: NR buffer (composition not in material) with 2 uM BSA, 0.5 nM RNA (legend: 1 nM), 15 min at 20 C, 6% native PAGE in 1x TBE; fluorescence quenching at 25 C, buffer not in material; settings: protein: recombinant; chain copies: 2; label: 5'-FAM
[6] = biological target: the molecule itself; experiment: SEC; S. solfataricus cell lysate on Superdex 200 in GF buffer (20 mM sodium phosphate pH 7.5, 250 mM NaCl, 5 mM EDTA, 0.5 mM DTT); 2 ml fractions analysed by western blotting

“Recombinant Cas6-1 (Sso1437) (from UniProt Q97Y96 1-287) (enzyme)” showed a stoichiometry N [1] of 2.

UGAUAAUCUCUUAUAGAAUUGAAAG (ssRNA) [FAM-CD repeat RNA] gave a Kd (Cas6-1 [2]) of about 14 nM.

GAUUAAUCCCAAAAGGAAUUGAAAG (ssRNA) [AB-repeat RNA (32P)] gave a Kd (Cas6-1 [3]) of 350 nM.

For GAUAAUCUCUUAUAGAAUUGAAAG (ssRNA) [CD-repeat RNA (32P)], the Kd (Cas6-1 [4]) was about 16 nM.

Work on UGAUAAUCUCUUAUAGA (ssRNA, 3'-phosphate) [FAM-CDproduct RNA] yielded a Kd (Cas6-1 [5]) of about 14 nM.

B1: Cmr7 (Sso1986) subunit of CMR, free protein in the lysate (natural protein, UniProt Q97WX5 1-197, looked up)
chain: MTSGAGWEEQVFLPITNSISSEDNNQIKIGSSVSIEYNQNGQHVSQIDDKGLHNILVLTGYAIDESTGELVPTFDPCDYVKGILISGKILKGNHFKIIGIPSNKLYIIRKKDVHGNITFSLPIKNFNTGTYQVDLRDKVTSFVSLDRDVAKTIVDNVLAKIYAKIYNSLNKEQKDKLYRDVEEIFNYYSIKSLKSNP
notes: Cmr7 (Sso1986), subunit of the CMR complex of Sulfolobus solfataricus; also called dimeric Cmr7 protein; source: endogenous, S. solfataricus lysate
In the case of B1, the “stoichiometry N” value [6] is reported as 2.
